Tested on: PAL
Assay: plate RNA binding assay (RiboGreen), immobilized PAL
Details: 12 mM HEPES/KOH pH 7.2, 135 mM KCl, 10 mM NaCl, 10% w/v glycerol, 0.5 mg/mL heparin, 0.5 mg/mL BSA, 25 C, 30 min, 465 nm light or dark, 100 or 1000 nM RNA

Sequence	binding signal (% (normalization reference)) (blue light 465 nm)	binding signal (% of aptamer 53 in light) (1000 nM RNA, dark (block inferred from row order), mean of 6 printed values)	binding signal (% of aptamer 53 in light)
GGGAGGACGAUGCGGCCCGUACAGCAGCGAUGCGGGUCGCGUGUCCACCCCGGCUCAGACGACUCGCUGAGGAUCCGAGA [aptamer 53]	100	–	–
GGGGUGGAAUCUUUACAGGACUAUCACGGUACAGCACCGAUGCCGGAUAGUCCUGUAAAGAUUCCACUU [SHCDK1m]	–	1.35	3.97

Source: PMC7518282
